Experimental findings from paper PMC10509167, “Identification and characterization of endo-α-, exo-α-, and exo-β-D-arabinofuranosidases degrading lipoarabinomannan and arabinogalactan of mycobacteria” (Nature Communications, 2023) are described below.

Where only a bound is given, the exact number is not on record here.

The target of assay [1] is EndoMA1 (MIAR_33230), GH183 (DUF4185) endo-D-arabinanase from Microbacterium arabinogalactanolyticum, recombinant wild type (Microbacterium arabinogalactanolyticum JCM 9171). Briefly: crystal structure; EndoMA1 wild type, apo form, 1.60 Å; sitting-drop vapor diffusion, 20 °C.
Assay [2] shares this target. As to the kind of experiment: SEC-MALS; SEC-MALS/RI of EndoMA1, KW403-4F column (Shodex), DAWN HELEOS II; self-association in solution.
Assay [3] shares this target. As to the kind of experiment: SEC-SAXS; SEC-SAXS of EndoMA1 at beamline BL-10C of the Photon Factory, same column and buffer as SEC-MALS/RI; profile compared with the dimeric apo crystal structure. (In gel filtration, larger molecules generally elute earlier.)
For assay [4], the target named is EndoMA1 D51N catalytic residue mutant (Microbacterium arabinogalactanolyticum JCM 9171). As to the kind of experiment: crystal structure; EndoMA1 D51N co-crystallised with 10 mM A9LT, 1.80 Å; microseeding, 30 °C; four chains (A-D) in the asymmetric unit.
Assay [5] deals with ExoMA1 (MIAR_33200), GH172 exo-α-D-arabinofuranosidase from Microbacterium arabinogalactanolyticum, recombinant (Microbacterium arabinogalactanolyticum JCM 9171). As to the kind of experiment: negative-stain transmission electron microscopy; purified ExoMA1 0.1 mg/mL in 10 mM Tris-HCl (pH 7.5), 500 mM NaCl, on carbon-coated copper grids, 2% uranyl acetate, 120 kV.
For assay [6] the target is unchanged. As to the kind of experiment: crystal structure; ExoMA1 apo form, 2.42 Å; dodecamer in the asymmetric unit; sitting-drop vapor diffusion, 20 °C.
For assay [7] the target is unchanged. As to the kind of experiment: SEC; SEC of ExoMA1 in solution (Supplementary Fig. 19a).

As usually defined, the stoichiometry N is a count of units in the complex or per binding partner. With “EndoMA1 (MIAR_33230), GH183 (DUF4185) endo-D-arabinanase from Microbacterium arabinogalactanolyticum, recombinant wild type (enzyme)”, the stoichiometry N in assay [1], in assay [2] and in assay [3] was 2 throughout.
In turn, “EndoMA1 D51N catalytic residue mutant (enzyme)” showed a stoichiometry N in assay [4] of 2.
On to “ExoMA1 (MIAR_33200), GH172 exo-α-D-arabinofuranosidase from Microbacterium arabinogalactanolyticum, recombinant (enzyme)”, for which the stoichiometry N in assay [5] was 12; in assay [6] it was 12; in assay [7] it was over 7.
